How the values were obtained:
[1] = target: T1, integrin αVβ3 (R&D Systems, Cat #3050-AV) (human, UniProt P06756 31-1048; P05106 27-718, biotinylated (for the bead assays; sites not stated) | biotinylated (for the bead assays; sites not stated)); assay: Bio-Plex bead binding assay, initial velocities with Lineweaver-Burk plot; avidity constants; beads with immobilised PFL2665c DBLδ1_D4; biotinylated integrin at 3, 6 and 12 µg/ml, 0, 10, 30 min (αVβ3) or 0, 5, 15 min (αVβ6); 1xTBS, 1 mM CaCl2, 1 mM MgCl2; streptavidin-PE; corrected for HisAdEx; details: both partners purified
T1 construct: integrin alpha-V chain of soluble recombinant αVβ3; integrin beta-3 chain of soluble recombinant αVβ3; Molecular weight 191.3 kDa according to the manufacturer; Biotinylated when used in solution on beads; immobilised on Petri dishes for the adhesion assays; also called αVβ3 integrin; soluble recombinant αVβ3; source: bought: R&D Systems, Cat #3050-AV

[2] = target: T2, integrin αVβ6 (R&D Systems, Cat #3817-AV) (UniProt P06756 31-1048; P18564 22-709, biotinylated (for the bead assays; sites not stated) | biotinylated (for the bead assays; sites not stated)); assay: as above; details: both partners purified
T2 construct: integrin alpha-V chain of soluble recombinant αVβ6; integrin beta-6 chain of soluble recombinant αVβ6; Molecular weight 189.1 kDa according to the manufacturer; Biotinylated when used in solution on beads; immobilised on Petri dishes for the adhesion assays; also called recombinant αVβ6; source: bought: R&D Systems, Cat #3817-AV

B1: DBLδ1_D4 domain of PFL2665c PfEMP1 (single domain) (domain or fragment)
chain: GDDLKQACSTKYGPKAPTSWKCVPSGVSTATSGEGGDAKSRERREAGVPTATSSGNTTGGGKDGATGGSICVPPRRRRLYVGGLTKWAKKYTGNTGESKSQEGVLQTKAVVDGKANAEGGGQKGARGPNGGTEGANSGKGAQQQQEQQQEQQQEQQQQQQQQQQQQPHSTDSSSSPPSSNPRDVDLRNAFVESAAIETFFLWDRYKKEKEKEKEDIEKNGQDTVAYTSSVEKDPQEELQRGDIPDGFLRQMFYTLGDYRDILYSGDKENGNKYMLVDDIKDISDKIKSILNSDVGQKTTAKQWWDDNGQHIWNGMIYALTYNTDTPSGDKPTQIDEVRAQLWDEKEKKPKKTDNDHDYTYENVELKEDDDQSGAKTPSASSGSNDPINNPQLSDFVEIPTYFRWLHEWGSDFCGTRKRMLGKIKHECRGDKVCSGYGENCDDQLKDNPSIFPSLNCPSCGTPCRYYKKWINTKKTEYDKQKSAYEQQQGKCEKENNGAEGNDHDKKFCTRIQNCNEAKDFLKTLGPCRTNDESGKGTLYFDDDTFKH
[1]
  Kd: 62 nM
[2]
  Kd: 56.4 nM
